Among the data in PMC9324194 are Kd values, retold here.

This data set has as its target Cy3-APE1 (human) (UniProt P27695). The data set is described as follows: FRET titration. To be noted: N1 = tetrahydrofuran (THF), EMSA: 2 uM protein and DNA, 20 mM potassium phosphate pH 7.0, 50 mM NaCl, 5 mM MgCl2, 2 mM DTT, 0.01% Tween-20, 30 min room temperature, gel at 4 °C. (In EMSA bound probe runs differently from free probe, usually more slowly.)
Sequence of UniProt P27695 (P27695 whole entry): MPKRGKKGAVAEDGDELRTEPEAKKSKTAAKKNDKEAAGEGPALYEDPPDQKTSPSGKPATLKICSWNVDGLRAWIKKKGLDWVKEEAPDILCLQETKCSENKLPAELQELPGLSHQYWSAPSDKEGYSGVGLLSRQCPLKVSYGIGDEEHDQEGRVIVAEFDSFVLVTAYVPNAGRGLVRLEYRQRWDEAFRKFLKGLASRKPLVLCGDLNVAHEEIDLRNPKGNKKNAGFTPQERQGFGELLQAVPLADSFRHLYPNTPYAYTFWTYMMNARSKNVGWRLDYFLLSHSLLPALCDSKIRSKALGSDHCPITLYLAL

The term Kd denotes the concentration at which binding is half-saturated. With “NCGGTCGATCGTAAGATCGACCGTGCGCTGGAGCTTGCTCCAGCGC [Cy5-P (Cy5-labelled product)]”, the Kd was found to be 5 nM. This counts as single-digit nanomolar.
